Assay results: publication doi:10.1101/2024.05.14.593897

Target: T1, KBTBD4 (construct for structure determination) (human), Q9NVX7
T1 chain: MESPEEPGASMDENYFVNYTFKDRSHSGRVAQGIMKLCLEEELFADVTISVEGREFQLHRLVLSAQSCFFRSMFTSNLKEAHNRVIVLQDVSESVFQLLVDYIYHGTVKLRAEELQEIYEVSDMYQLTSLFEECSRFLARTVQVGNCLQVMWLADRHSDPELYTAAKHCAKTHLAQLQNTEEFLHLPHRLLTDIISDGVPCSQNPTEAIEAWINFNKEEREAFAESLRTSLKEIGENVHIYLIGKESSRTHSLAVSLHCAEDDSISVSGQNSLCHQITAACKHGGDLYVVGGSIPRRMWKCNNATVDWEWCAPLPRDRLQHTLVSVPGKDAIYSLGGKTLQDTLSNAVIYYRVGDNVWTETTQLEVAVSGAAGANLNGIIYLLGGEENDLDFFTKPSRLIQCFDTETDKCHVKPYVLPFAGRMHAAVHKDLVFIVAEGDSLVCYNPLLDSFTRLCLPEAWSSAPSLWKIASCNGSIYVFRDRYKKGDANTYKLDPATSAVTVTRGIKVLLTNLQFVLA
Assay: cryo-EM structure
Conditions: remark: other sources report otherwise

stoichiometry N: 2
B1: KBTBD4 (construct for structure determination), Q9NVX7-1 1-518 (natural protein)
chain: MESPEEPGASMDENYFVNYTFKDRSHSGRVAQGIMKLCLEEELFADVTISVEGREFQLHRLVLSAQSCFFRSMFTSNLKEAHNRVIVLQDVSESVFQLLVDYIYHGTVKLRAEELQEIYEVSDMYQLTSLFEECSRFLARTVQVGNCLQVMWLADRHSDPELYTAAKHCAKTHLAQLQNTEEFLHLPHRLLTDIISDGVPCSQNPTEAIEAWINFNKEEREAFAESLRTSLKEIGENVHIYLIGKESSRTHSLAVSLHCAEDDSISVSGQNSLCHQITAACKHGGDLYVVGGSIPRRMWKCNNATVDWEWCAPLPRDRLQHTLVSVPGKDAIYSLGGKTLQDTLSNAVIYYRVGDNVWTETTQLEVAVSGAAGANLNGIIYLLGGEENDLDFFTKPSRLIQCFDTETDKCHVKPYVLPFAGRMHAAVHKDLVFIVAEGDSLVCYNPLLDSFTRLCLPEAWSSAPSLWKIASCNGSIYVFRDRYKKGDANTYKLDPATSAVTVTRGIKVLLTNLQFVLA
